Reference: patent publication US20220153819A1 (Regeneron, published 2022)
Several values for one entry are separate records, joined by “and”; a condition that tells them apart may be missing. Identical values can stand only once. Like-named read-outs stand apart in the source and are kept apart here.

Assays:
CD20 on Raji cells [1] = biological target: T1, CD20 on Raji cells (human, UniProt P11836 1-297)
T1 sequence (looked up): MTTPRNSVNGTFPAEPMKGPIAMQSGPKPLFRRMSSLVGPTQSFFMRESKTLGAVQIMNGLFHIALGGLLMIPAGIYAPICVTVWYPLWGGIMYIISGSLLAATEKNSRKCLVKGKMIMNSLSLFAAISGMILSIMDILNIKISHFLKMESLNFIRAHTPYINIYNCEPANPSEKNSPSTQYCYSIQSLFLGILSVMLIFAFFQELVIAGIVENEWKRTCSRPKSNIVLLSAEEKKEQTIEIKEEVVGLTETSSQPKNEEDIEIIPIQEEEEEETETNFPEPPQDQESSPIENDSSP

CD20 on Raji cells [2] = biological target: T1, CD20 on Raji cells; remark: listed apart in the source
biotinylated human C1q [3] = biological target: T2, biotinylated human C1q (human, UniProt P02745 23-245; P02746 28-253; P02747 29-245)
T2 sequence (P02745 23-245, chain 1 of 3): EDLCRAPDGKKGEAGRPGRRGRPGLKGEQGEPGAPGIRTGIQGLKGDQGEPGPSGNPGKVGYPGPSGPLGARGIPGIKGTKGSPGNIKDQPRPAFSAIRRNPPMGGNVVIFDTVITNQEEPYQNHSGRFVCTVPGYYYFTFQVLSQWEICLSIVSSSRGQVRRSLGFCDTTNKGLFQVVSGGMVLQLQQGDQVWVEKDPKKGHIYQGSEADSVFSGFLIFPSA
T2 sequence (P02746 28-253, chain 2 of 3): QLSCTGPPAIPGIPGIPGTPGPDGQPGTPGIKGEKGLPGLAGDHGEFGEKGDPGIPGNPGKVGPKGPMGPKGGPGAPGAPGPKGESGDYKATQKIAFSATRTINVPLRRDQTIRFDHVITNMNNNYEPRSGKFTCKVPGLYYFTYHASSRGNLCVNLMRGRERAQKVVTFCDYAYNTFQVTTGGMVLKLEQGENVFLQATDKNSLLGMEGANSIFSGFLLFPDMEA
T2 sequence (P02747 29-245, chain 3 of 3): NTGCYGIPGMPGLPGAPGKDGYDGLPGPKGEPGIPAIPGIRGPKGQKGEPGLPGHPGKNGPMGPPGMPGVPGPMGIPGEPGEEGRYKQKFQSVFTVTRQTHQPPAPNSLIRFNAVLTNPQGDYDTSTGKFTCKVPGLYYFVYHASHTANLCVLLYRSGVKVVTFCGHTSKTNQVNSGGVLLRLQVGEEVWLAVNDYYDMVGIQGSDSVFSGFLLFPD

hGITR.mmh [4] = biological target: T3, hGITR.mmh (human)
T3 chain: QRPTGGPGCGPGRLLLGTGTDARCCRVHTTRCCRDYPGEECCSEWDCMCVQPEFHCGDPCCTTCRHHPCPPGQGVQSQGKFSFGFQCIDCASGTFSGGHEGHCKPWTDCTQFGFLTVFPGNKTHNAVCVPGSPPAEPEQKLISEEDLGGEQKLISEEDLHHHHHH

hGITR.mmh [5] = biological target: T3, hGITR.mmh
[6] = biological target: T4, human complement component 1q (C1q) (human, UniProt P02745 23-245; P02746 28-253; P02747 29-245)
T4 sequence (P02745 23-245, chain 1 of 3): as the sequence (P02745 23-245, chain 1 of 3) above
T4 sequence (P02746 28-253, chain 2 of 3): as the sequence (P02746 28-253, chain 2 of 3) above
T4 sequence (P02747 29-245, chain 3 of 3): as the sequence (P02747 29-245, chain 3 of 3) above

[7] = biological target: T5, human GITR on Jurkat/hGITR/hCD20 cells (human, UniProt Q9Y5U5 26-241)
T5 sequence (looked up): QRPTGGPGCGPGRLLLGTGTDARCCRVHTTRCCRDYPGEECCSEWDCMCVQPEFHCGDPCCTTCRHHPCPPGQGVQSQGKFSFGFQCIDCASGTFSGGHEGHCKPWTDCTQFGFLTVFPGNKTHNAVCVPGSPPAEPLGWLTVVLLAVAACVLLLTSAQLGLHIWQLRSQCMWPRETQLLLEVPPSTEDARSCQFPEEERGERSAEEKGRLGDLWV

[8] = biological target: T4, human complement component 1q (C1q); remark: listed apart in the source
hGITR.mmh [9] = biological target: T3, hGITR.mmh
biotinylated human C1q [10] = biological target: T2, biotinylated human C1q; remark: listed apart in the source
[11] = biological target: T4, human complement component 1q (C1q); remark: listed apart in the source
IsdA.6×(His) = biological target: T6, IsdA.6×(His) (Staphylococcus aureus, UniProt A6QG31 47-316); test: SPR (Biacore), 37C; IsdA.6xHis captured, bsAb injected
T6 sequence: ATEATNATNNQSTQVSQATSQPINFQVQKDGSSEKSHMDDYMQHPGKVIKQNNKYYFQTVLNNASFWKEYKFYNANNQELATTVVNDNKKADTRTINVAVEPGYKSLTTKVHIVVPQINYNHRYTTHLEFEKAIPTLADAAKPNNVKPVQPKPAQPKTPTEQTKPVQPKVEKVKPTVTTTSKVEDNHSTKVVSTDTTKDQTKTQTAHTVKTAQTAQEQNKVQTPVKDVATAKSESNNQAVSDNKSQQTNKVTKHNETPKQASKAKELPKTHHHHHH

[12] = biological target: T7, hemagglutinin (HA) on A/Puerto Rico/08/1934 (H1N1)-infected MDCK cells (Influenza A virus A/Puerto Rico/08/1934 …, UniProt P03452 18-565); test: cell-based or functional assay
[13] = biological target: T7, hemagglutinin (HA) on A/Puerto …; test: cell ELISA on fixed A/Puerto Rico/08/1934 (H1N1)-infected MDCK cells
[14] = biological target: T4, human complement component 1q (C1q); test: SPR (Biacore T200), 25C; bsAb captured via anti-human F(ab')2, hC1q injected
biotinylated human C1q [15] = biological target: T2, biotinylated human C1q
biotinylated human C1q [16] = biological target: T2, biotinylated human C1q; remark: listed apart in the source
[17] = biological target: T4, human complement component 1q (C1q); test: SPR (Biacore T200), 37C; bsAb captured via anti-human F(ab')2, hC1q injected
IsdB.6×(His) = IsdB.6×(His) (Staphylococcus aureus, UniProt A6QG30 41-613); test: SPR (Biacore T200), 37C; antibody captured, IsdB.6xHis injected

B1: Rituximab (antibody, V domains shown)
VH: QVQLQQPGAELVKPGASVKMSCKASGYTFTSYNMHWVKQTPGRGLEWIGAIYPGNGDTSYNQKFKGKATLTADKSSSTAYMQLSSLTSEDSAVYYCARSTYYGGDWYFNVWGAGTTVTVSA
VL: QIVLSQSPAILSASPGEKVTMTCRASSSVSYIHWFQQKPGSSPKPWIYATSNLASGVPVRFSGSGSGTSYSLTISRVEAEDAATYYCQQWTSNPPTFGGGTKLEIK
Work on B1 yielded an EC50 (CD20 on Raji cells [1]) of 3.14 nM and an EC50 (CD20 on Raji cells [2]) of 3.14 nM.

B2: mAb14303, anti-CD20 parental bivalent hIgG1 antibody (antibody, V domains shown)
VH: QVHLVESGGGVVQPGRSLRLSCSVSGLTFNSYGMHWVRQAPGKGLEWVTMISYDGSDKYYLDSVKGRFTISRDNSKNILYLQINSLRPEDTAVYYCVNWDNWRGNFDYWGQGTLVTVSS
VL: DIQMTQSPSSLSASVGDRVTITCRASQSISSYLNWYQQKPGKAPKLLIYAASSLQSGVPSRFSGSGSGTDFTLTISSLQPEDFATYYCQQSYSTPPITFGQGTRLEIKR
B2 showed an EC50 (CD20 on Raji cells [1]) of 6.03 nM and an EC50 (CD20 on Raji cells [2]) of 6.03 nM.

B3: REGN6545, anti-GITR x anti-C1q bispecific antibody (bispecific antibody, V domains shown)
VH 1: QVQLQESGPGLVKPSETLSLTCIVSGGSISGYFWNWIRQPPGKGLEWIGYIYYSGTTIYNPSLKSRFTISLDTSKNQFSLKLTSVTAADTAVYYCARESYNPSPRYFDHWGQGTLVTVSS
VH 2: EVQLVESGGGVVQPGGSLRLSCAASGFSLDDYAMHWVRQTPGKGLEWVSLISGDGSRTSYADSVKGRFTISRDNSKNSLYLKMNSLRTEDTALYYCTKDPHNSNWFDPWGQGTLVTVSS
VL: not shown
Binder B3 has a Kd (biotinylated human C1q [3]) of 1860 nM, a koff (biotinylated human C1q [3]) of 0.449 s⁻¹ and a kon (biotinylated human C1q [3]) of 241000 M⁻¹ s⁻¹. The Kd (hGITR.mmh [4]) was 7.38 nM, the koff (hGITR.mmh [4]) was 0.00795 s⁻¹ and the kon (hGITR.mmh [4]) was 1.08e+06 M⁻¹ s⁻¹. The kon (hGITR.mmh [5]) was 330000 M⁻¹ s⁻¹ and 274000 M⁻¹ s⁻¹, the Kd [6] was 1.74 nM and the koff [6] was 0.00582 s⁻¹. It also gave a kon [6] of 3.34e+06 M⁻¹ s⁻¹, an EC50 [7] of 31 nM and a Kd [8] of 0.528 nM. It also gave a koff [8] of 0.00162 s⁻¹, a kon [8] of 3.07e+06 M⁻¹ s⁻¹ and a Kd (hGITR.mmh [9]) of 3.3 nM. The koff (hGITR.mmh [9]) was 0.00229 s⁻¹, the kon (hGITR.mmh [9]) was 693000 M⁻¹ s⁻¹ and the Kd (biotinylated human C1q [10]) was 3330 nM. For the same binder, the koff (biotinylated human C1q [10]) was 0.658 s⁻¹ and the kon (biotinylated human C1q [10]) was 198000 M⁻¹ s⁻¹.

B4: REGN5553, anti-IsdA x anti-C1q bispecific antibody (bispecific antibody, V domains shown)
VH 1: EVQLVESGGGLVQPGRSLRVSCAASGFTFDDYAMHWVRQIPGKGLEWVSGIRWNSDTIGYADSVKGRFTISRDNAKNFLYLQMNSLRTEDTALYYCVKDMRVRGIIMYGMDVWGQGTTVTVSS
VH 2: B3 VH 2
VL: not shown
notes: also called bsC1q × IsdA; bs hC1q × IsdA
Binder B4 has a Kd [11] of 1.3 nM, a koff [11] of 0.00469 s⁻¹ and a kon [11] of 3.62e+06 M⁻¹ s⁻¹. The Kd (IsdA.6×(His)) was 3.62 nM, the T1/2 (IsdA.6×(His)) was 11.8 min and the koff (IsdA.6×(His)) was 0.000977 s⁻¹. The kon (IsdA.6×(His)) was 270000 M⁻¹ s⁻¹.

B5: REGN5372, anti-GITR bivalent hIgG1 antibody (antibody, V domains shown)
VH: B3 VH 1
VL: not shown
Work on B5 yielded an EC50 [7] of 3.07 nM.

B6: REGN5177, anti-CD20 x anti-C1q bispecific antibody (bispecific antibody, V domains shown)
VH 1: B2 VH
VH 2: B3 VH 2
VL: not shown
B6 gave an EC50 (CD20 on Raji cells [1]) of 35.6 nM, an EC50 (CD20 on Raji cells [2]) of 35.7 nM and a Kd (biotinylated human C1q [3]) of 436 nM. It also gave a koff (biotinylated human C1q [3]) of 0.0442 s⁻¹, a kon (biotinylated human C1q [3]) of 101000 M⁻¹ s⁻¹ and a Kd [6] of 0.481 nM. It also gave a koff [6] of 0.00499 s⁻¹, a kon [6] of 1.04e+07 M⁻¹ s⁻¹ and a Kd [8] of 0.688 nM. For the same binder, the koff [8] was 0.00224 s⁻¹ and the kon [8] was 3.26e+06 M⁻¹ s⁻¹.

B7: REGN5536, anti-PNAG x anti-C1q scFv bispecific antibody (bispecific antibody, human IgG1, lambda)
heavy: not shown
light: QLVLTQSPSASASLGASVKLTCTLSSGHSNYAIAWHQQQPGKGPRYLMKVNRDGSHIRGDGIPDRFSGSTSGAERYLTISSLQSEDEADYYCQTWGAGIRVFGGGTKLTVLGQPKAAPSVTLFPPSSEELQANKATLVCLISDFYPGAVTVAWKADSSPVKAGVETTTPSKQSNNKYAASSYLSLTPEQWKSHRSYSCQVTHEGSTVEKTVAPTECS
scFv: not shown
With B7 the Kd [11] was 0.632 nM, the koff [11] was 0.0102 s⁻¹ and the kon [11] was 1.61e+07 M⁻¹ s⁻¹.

B8: REGN5409, anti-Psl x anti-C1q scFv bispecific antibody (bispecific antibody, human IgG1, lambda)
heavy: not shown
light: SSELTQDPAVSVALGQTVRITCQGDSLRSYYASWYQQKPGQAPVLVIYGKNNRPSGIPDRFSGSSSGNTASLTITGAQAEDEADYYCNSRDSSGNHVVFGGGTKLTVLGQPKAAPSVTLFPPSSEELQANKATLVCLISDFYPGAVTVAWKADSSPVKAGVETTTPSKQSNNKYAASSYLSLTPEQWKSHRSYSCQVTHEGSTVEKTVAPTECS
scFv: not shown
B8 showed a Kd (biotinylated human C1q [3]) of 431 nM, a koff (biotinylated human C1q [3]) of 0.0276 s⁻¹ and a kon (biotinylated human C1q [3]) of 64000 M⁻¹ s⁻¹. The Kd [6] was 2.41 nM, the koff [6] was 0.0116 s⁻¹ and the kon [6] was 4.8e+06 M⁻¹ s⁻¹. It also gave a Kd [8] of 0.747 nM, a koff [8] of 0.00262 s⁻¹ and a kon [8] of 3.51e+06 M⁻¹ s⁻¹. For the same binder, the Kd (biotinylated human C1q [10]) was 343 nM, the koff (biotinylated human C1q [10]) was 0.0149 s⁻¹ and the kon (biotinylated human C1q [10]) was 43500 M⁻¹ s⁻¹.

B9: mAb11829, parental anti-HA bivalent antibody (antibody, V domains shown)
VH: QVHLVQSGPEVKKPGSSVKVSCKASGVTFISHAISWVRQAPGQGLEWVGGIIAIFGTTNYAQKFQGRVTVTTDKSTNTVYMELSRLRSEDTAIYYCARGETYYEGNFDFWGQGTLVTVSS
VL: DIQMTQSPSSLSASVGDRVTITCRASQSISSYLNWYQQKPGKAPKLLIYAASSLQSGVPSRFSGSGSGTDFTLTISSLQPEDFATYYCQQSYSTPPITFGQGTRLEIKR
notes: also called Flu A, group 1 HA; parental HA bivalent antibody
For B9, the “CDC EC50 (H1N1-infected MDCK cells)” value [12] was 20.8 nM, the “Maximum percent specific lysis (CDC of H1N1-infected MDCK cells)” value (“Maximum percent specific lysis” for short) [12] was 35.8% and the EC50 [13] was 1.46 nM. The “Maximum binding (RLUs)” value [13] was 788000 RLU.

B10: mAb27250, one-arm parental HA antibody (antibody, V domains shown)
VH: B9 VH
VL: not shown
notes: also called Flu A, group 1, one arm
With B10 the “CDC EC50 (H1N1-infected MDCK cells)” value [12] was 20.7 nM, the “Maximum percent specific lysis” value [12] was 39% and the EC50 [13] was 0.648 nM. The “Maximum binding (RLUs)” value [13] was 719000 RLU.

B11: REGN6093, anti-Influenza HA x anti-C1q bispecific antibody (bispecific antibody, V domains shown)
VH 1: B9 VH
VH 2: B3 VH 2
VL: not shown
notes: also called FluA group 1 x C1q bispecific; anti-HA x anti-C1q
B11 was tested, and the Kd [14] was 0.451 nM, the koff [14] was 0.00216 s⁻¹ and the kon [14] was 4.8e+06 M⁻¹ s⁻¹. The t1/2 [14] was 5.3 min, the Kd (biotinylated human C1q [15]) was 327 nM and the koff (biotinylated human C1q [15]) was 0.0309 s⁻¹. For the same binder, the kon (biotinylated human C1q [15]) was 94600 M⁻¹ s⁻¹, the t1/2 (biotinylated human C1q [15]) was 0.37 min and the “CDC EC50 (H1N1-infected MDCK cells)” value [12] was 10.5 nM. For the same binder, the “Maximum percent specific lysis” value [12] was 30%, the Kd (biotinylated human C1q [16]) was 516 nM and the koff (biotinylated human C1q [16]) was 0.0937 s⁻¹. The kon (biotinylated human C1q [16]) was 182000 M⁻¹ s⁻¹, the t1/2 (biotinylated human C1q [16]) was 0.12 min and the EC50 [13] was 1.84 nM. For the same binder, the “Maximum binding (RLUs)” value [13] was 849000 RLU, the Kd [17] was 1.11 nM and the koff [17] was 0.00401 s⁻¹. For the same binder, the kon [17] was 3.61e+06 M⁻¹ s⁻¹ and the t1/2 [17] was 2.9 min.

B12: parental bivalent anti-IsdB antibody (antibody, V domains shown)
VH: EVQLVESGGGLVQPGRSLRLSCTTSGFTFDDYAMHWVRQVPGQGLEWVAGLSWNSDTIGYADSVKGRFTISRDNAKNSLYLQMKSLKAEDTALYYCTKDFYHSLNNWNYYYFDYWGQGTLVTVSS
VL: not shown
notes: also called anti-IsdB bival; bivalent IsdB antibody
Work on B12 yielded a Kd (IsdB.6×(His)) of 1.75 nM, a T1/2 (IsdB.6×(His)) of 18 min and a koff (IsdB.6×(His)) of 0.00064 s⁻¹. The kon (IsdB.6×(His)) was 365000 M⁻¹ s⁻¹.
